Source: PMC3721995
Ends that are not written are not given here. * marks the point of attachment. Biotin = O=C1N[C@H]2[C@H](CS[C@H]2CCCCC(=O)*)N1

Target: recombinant HIV-1 gp120BaL protein (HIV-1 (isolate BaL))
Assay: ELISA; solid-phase ELISA; gp120BaL coated at 8 ug/ml (50 mM bicarbonate pH 9.6, 4°C, 16 h); biotinylated peptides at 30 ug/ml in 20 mM Tris-HCl pH 7.4, 0.05% Tween-20, 37°C, 60 min; detected with AP-streptavidin, read at 405 nm

Row | Binder | relative binding
1 | Biotin-RGSWGTVCDDSWDTN [SRCR1 peptide P6] | 4.5
2 | Biotin-GWLSHNCGHGEDAGV [SRCR1 peptide P19, biotinylated] | 7.5
3 | Biotin-NCGHGEDAGVICSA (cysteine pairing not given here) [SRCR1 peptide P20] | 1.5
4 | Biotin-VEILYRGSWGTVCDD [SRCR1 peptide P5] | 4
5 | Biotin-ALDDVRCSGHESYLW [SRCR1 peptide P15] | 2
6 | Biotin-GSGPIALDDVRCSGH [SRCR1 peptide P14] | 1.5
